Measured values: US20050014206A1, “Method of identifying compounds that specifically inhibit the anaphase promoting complex” (Boehringer Ingelhiem International GmbH, priority 2003, published 2005)
Entries after “also recorded” stand apart in the source; their conditions may differ.

B1: CDC20 C-terminal peptide CLRREREKASTSKSSLIHQGIR (peptide)
peptide: CLRREREKASTSKSSLIHQGIR
modifications: in the peptide binding assays immobilized via the N-terminal cysteine onto maleinimide-activated POROS matrix; free peptide in the competition assays
notes: Synthetic peptide; also called CDC20 C-terminus; CDC20 peptide
B2: CDH1 C-terminal peptide CFSKTRSTKESVSVLNLFTRIR (peptide)
peptide: CFSKTRSTKESVSVLNLFTRIR
modifications: in the peptide binding assays immobilized via the N-terminal cysteine onto maleinimide-activated POROS matrix; free peptide in the competition assays
notes: Synthetic peptide; also called CDH1 C-terminus; CDH1 peptide

Columns and labels:
APC7 = target: T1, APC7 (Homo sapiens, UniProt Q9UJX3); test: Peptide binding assay (matrix-coupled peptides), APC7 and APC7 fragments; settings: for binding of recombinant APC7 to matrix-coupled peptide: recombinant APC7 in insect cell lysates, western blot
T1 construct: HisHA; made in house; host or cells: Sf9 or Hi5 insect cells (baculovirus), used as lysate
Procedure: (§1) Synthetic peptides used in binding and inhibition assays were […] (CDC20 C-terminus; SEQ ID NO:2), […] (CDH1 C-terminus; SEQ ID NO:1), […] (CDC20 N-terminus; SEQ ID NO:10), and CAVWSLSSCKPGFGVD (control; SEQ ID NO:11).
(§2) Peptide interaction assays were carried out as described in Wendt, K. S., et al., Nat Struct Biol 8:784-8 (2001). Synthetic peptides (see above) were immobilized via N-terminal cysteine residues onto maleinimide-activated POROS matrix ([…]) in 0.1 M HEPES, pH 7.9 for 3 hours. After washing with slightly acidic buffers, 100 μg of the resulting matrix were incubated with insect cell lysates containing recombinant APC subunits, or with fractions from anion chromatography, in total volumes of […] of TBS/T pH 7.5. After stringent washing in TBS/T 0.5 M NaCl, samples were analyzed by SDS-PAGE and immunoblotted with 12CA5 anti-HA antibodies or antibodies against APC subunits.
(§3) To test if APC3 would also interact with the C-termini of CDH1 and its related activator CDC20, insect cell lysates containing recombinantly expressed APC3 were incubated with synthetic peptides coupled to a matrix through their N-terminus. After washing, peptide-bound material was analyzed by western blot. […] In budding yeast, which lacks APC7, they share Cdc27p as their closest homologue.
(§4) In order to exclude any non-specific effects caused by incorrect folding of recombinantly expressed proteins, an alternative source of APC subunits was used in the peptide binding assays. As described above, late-eluting fractions from the ReSource Q column contained considerable amounts of the TPR subunits APC3, APC6, and APC7, while other subunits were found in lower abundance (FIG. 10).
Lastly, the region in APC7 responsible for binding to IR peptides was mapped.

APC activation by CDH1 = target: T2, APC activation by CDH1 (Homo sapiens, UniProt P30260+Q9UJX3); test: In vitro ubiquitination assay with [125I]-labelled cyclin B as substrate; type: biochemical; settings: APC loaded with recombinant CDH1 in presence of peptide at 1 mg/ml, cyclin B fragment substrate
T2 construct: endogenous in cells; host or cells: APC immunopurified from HeLa cell extracts; CDH1 and cyclin B fragment recombinant
Procedure: (§5) Immunopurified holo-APC or subcomplexes were washed and incubated with purified recombinant CDH1 (0.5-1.0 μg per 10 μl bead volume) in TBS/T, or with insect cell lysates in TBS/T containing recombinant CDH1 proteins as indicated. Peptides for competition were used at 1 mg/ml, with the addition of 0.5 mM DTT to the buffer. Subsequently, bead-bound complexes were washed 3× with TBS/T and immunoblotted for binding of CDH1 or used in ubiquitination assays. In vitro ubiquitination reactions were performed as described (Kramer, E. R., et al., Curr Biol 8:1207-10 (1998)). Securin-myc-his substrate was detected by immunoblotting with monoclonal anti-Myc 9E10 antibodies. Alternatively, an iodinated N-terminal recombinant fragment of sea urchin cyclin B (amino acids 13-110) was used and visualized by autoradiography (Gieffers, C., et al., Mol Cell 7:907-13 (2001)).
(§6) What are the mechanistic consequences of the observed interactions between IR tail peptides and APC subunits? To address this, it was tested if the peptides would influence APC activity in in vitro ubiquitination assays. Immunopurified APC was loaded with recombinant CDH1 in the presence or absence of IR-tail or control peptides, washed, and used to ubiquitinate a radioactively labeled fragment of cyclin B (FIG. 6B). […] In contrast, an N-terminal CDC20 peptide had no effect on APC activation.

APC6 = target: T3, APC6 (Homo sapiens, UniProt Q13042); test: Peptide binding assay (matrix-coupled peptides), APC6; settings: for binding of recombinant APC6 to matrix-coupled peptide: insect cell lysates, western blot
T3 construct: HisHA; made in house; host or cells: Sf9 or Hi5 insect cells (baculovirus), used as lysate
Procedure: as §1, §2, §3, §4

APC3 = target: T4, APC3 (Homo sapiens, UniProt P30260); test: Peptide binding assay (matrix-coupled peptides), APC3
T4 construct: HisHA; made in house; host or cells: Sf9 or Hi5 insect cells (baculovirus), used as lysate
Procedure: as §1, §2, §3, §4

APC8 = target: T5, APC8 (Homo sapiens, UniProt Q9UJX2); test: Peptide binding assay (matrix-coupled peptides), APC8; settings: insect cell lysates; western blot
T5 construct: HisHA; made in house; host or cells: Sf9 or Hi5 insect cells (baculovirus), used as lysate
Procedure: as §1, §2, §3

APC5 = target: T6, APC5 (Homo sapiens, UniProt Q9UJX4); test: Peptide binding assay (matrix-coupled peptides), APC5; settings: insect cell lysates; western blot
T6 construct: HisHA; made in house; host or cells: Sf9 or Hi5 insect cells (baculovirus), used as lysate
Procedure: as §1, §2, §3

[1] = target: T7, binding of recombinant CDH1 to APC (Homo sapiens, UniProt P30260+Q9UJX3); test: CDH1 binding assay with competing peptides; settings: peptides at 1 mg/ml; for effect of peptide on CDH1 binding to APC: quantitative immunoblotting with radiolabeled antibodies
T7 construct: endogenous in cells; host or cells: APC immunopurified from HeLa cell extracts; CDH1 recombinant, made in house
Procedure: as §5, §6

holo-APC = target: T8, holo-APC (Homo sapiens, UniProt P30260+Q9UJX3); test: Peptide binding assay with holo-APC containing fractions; settings: APC-containing anion exchange fractions
T8 construct: endogenous in cells; host or cells: HeLa cells, Source15Q fractions eluting around 450 mM KCl
Procedure: as §1
Pellets from 5×10^9 logarithmically grown HeLa cells (4C, Belgium) were lysed in 20 mM TrisCl pH7.7, 150 mM KCl, 0.5 mM DTT, 0.1% Tween-20, Protease Inhibitor mix (Sigma) using a french press and cleared by 100,000×g centrifugation for 1 h. After filtration through a 0.45 μm filter, extracts were loaded onto a 60 ml Source15Q anion exchange column (Amersham) at 4 ml/min. The column was washed with 20 mM Tris-Cl pH7.7, 150 mM KCl, 0.5 mM DTT until a drop in A280 indicated the end of the flowthrough. Elution was carried out with a gradient from 150 mM to 600 mM KCl. […]
Peptide interaction assays were carried out as described in Wendt, K. S., et al., Nat Struct Biol 8:784-8 (2001). […] After stringent washing in TBS/T 0.5 M NaCl, samples were analyzed by SDS-PAGE and immunoblotted with 12CA5 anti-HA antibodies or antibodies against APC subunits.
It was tested if CDH1's C-terminus would be sufficient to interact with holo-APC. For this, APC-containing fractions were incubated with the peptide matrix and analyzed for binding of APC by detection of all subunits. […]

CDC26 = target: T9, CDC26 (Homo sapiens, UniProt Q8NHZ8); test: Peptide binding assay (matrix-coupled peptides), CDC26; settings: late-eluting Q column fractions from HeLa extracts; listed as CDH1 peptide
T9 construct: endogenous in cells; host or cells: HeLa cells, late-eluting Source15Q fractions
Procedure: as §1, §2, §4

[2] = target: T10, recombinant HisHA-tagged APC5 (UniProt Q9UJX4 1-755); test: matrix-coupled peptide pull-down from insect cell lysate, western blot
T10 construct: Expressed with baculovirus in insect cells; used as lysate; not shown: HisHA tag
Procedure: as §2
(§7) To test if APC3 would also interact with the C-termini of CDH1 and its related activator CDC20, insect cell lysates containing recombinantly expressed APC3 were incubated with synthetic peptides coupled to a matrix through their N-terminus. After washing, peptide-bound material was analyzed by western blot. […] APC7, on the other hand, interacted strongly with the CDH1 C-terminus and moderately with CDC20's C-terminus (FIG. 5A), in a manner very similar to APC3. […] In budding yeast, which lacks APC7, they share Cdc27p as their closest homologue.

[3] = target: T11, recombinant HisHA-tagged APC8 (UniProt Q9UJX2 1-597); test: as above
T11 construct: Expressed with baculovirus in insect cells; used as lysate; also called APC8/CDC23; not shown: HisHA tag
Procedure: as §2, §7

[4] = target: native CDC26 from late-eluting anion exchange fractions of HeLa extract (human, UniProt Q8NHZ8 1-85); test: matrix-coupled peptide pull-down from late-eluting Q column fractions, western blot
Procedure: as §2, §4

[5] = listed as C-terminal CDC20 peptide
[6] = late-eluting Q column fractions from HeLa extracts
[7] = listed as C-terminal CDH1 peptide
[8] = listed as C-terminal peptide of CDH1
[9] = recombinant APC3 in insect cell lysates, western blot

T4 sequence (P30260 whole entry): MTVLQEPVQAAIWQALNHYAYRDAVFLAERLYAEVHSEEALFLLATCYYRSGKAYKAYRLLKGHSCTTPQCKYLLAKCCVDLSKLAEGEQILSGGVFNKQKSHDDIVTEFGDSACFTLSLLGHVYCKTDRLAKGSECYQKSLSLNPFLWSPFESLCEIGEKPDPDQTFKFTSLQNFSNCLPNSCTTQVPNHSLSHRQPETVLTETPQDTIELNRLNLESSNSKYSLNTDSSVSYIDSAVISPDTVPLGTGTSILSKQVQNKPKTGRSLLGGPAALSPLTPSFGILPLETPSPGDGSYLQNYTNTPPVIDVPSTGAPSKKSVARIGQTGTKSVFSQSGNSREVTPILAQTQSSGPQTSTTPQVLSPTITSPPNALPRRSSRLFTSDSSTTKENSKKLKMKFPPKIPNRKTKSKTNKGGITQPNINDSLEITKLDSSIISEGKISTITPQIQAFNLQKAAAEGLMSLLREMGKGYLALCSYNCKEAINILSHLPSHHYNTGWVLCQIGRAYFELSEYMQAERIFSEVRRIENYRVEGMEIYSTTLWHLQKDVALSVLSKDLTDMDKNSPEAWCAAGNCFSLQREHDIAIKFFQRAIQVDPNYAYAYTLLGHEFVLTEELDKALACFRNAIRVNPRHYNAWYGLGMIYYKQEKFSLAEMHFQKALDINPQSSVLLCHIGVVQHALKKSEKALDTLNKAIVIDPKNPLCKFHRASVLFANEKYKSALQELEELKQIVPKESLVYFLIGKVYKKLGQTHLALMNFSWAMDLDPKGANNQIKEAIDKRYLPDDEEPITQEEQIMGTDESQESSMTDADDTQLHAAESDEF
T3 sequence (Q13042 whole entry): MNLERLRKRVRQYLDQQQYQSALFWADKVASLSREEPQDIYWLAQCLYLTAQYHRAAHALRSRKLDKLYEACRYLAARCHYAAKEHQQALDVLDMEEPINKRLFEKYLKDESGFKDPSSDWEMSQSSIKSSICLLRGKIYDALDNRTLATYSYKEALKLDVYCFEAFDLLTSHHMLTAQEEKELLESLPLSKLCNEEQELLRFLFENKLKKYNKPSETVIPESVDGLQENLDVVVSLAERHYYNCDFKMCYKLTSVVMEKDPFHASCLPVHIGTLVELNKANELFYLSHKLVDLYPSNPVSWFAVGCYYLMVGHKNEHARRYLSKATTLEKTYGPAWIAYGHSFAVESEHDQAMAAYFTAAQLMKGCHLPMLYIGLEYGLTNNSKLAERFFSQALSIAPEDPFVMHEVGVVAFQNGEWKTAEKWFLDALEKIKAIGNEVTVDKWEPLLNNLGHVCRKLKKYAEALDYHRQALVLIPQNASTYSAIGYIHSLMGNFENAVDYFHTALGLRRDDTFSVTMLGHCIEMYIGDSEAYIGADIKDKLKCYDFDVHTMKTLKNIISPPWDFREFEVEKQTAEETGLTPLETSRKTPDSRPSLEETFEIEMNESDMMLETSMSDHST
T1 sequence (Q9UJX3 whole entry, the tested form may be a part): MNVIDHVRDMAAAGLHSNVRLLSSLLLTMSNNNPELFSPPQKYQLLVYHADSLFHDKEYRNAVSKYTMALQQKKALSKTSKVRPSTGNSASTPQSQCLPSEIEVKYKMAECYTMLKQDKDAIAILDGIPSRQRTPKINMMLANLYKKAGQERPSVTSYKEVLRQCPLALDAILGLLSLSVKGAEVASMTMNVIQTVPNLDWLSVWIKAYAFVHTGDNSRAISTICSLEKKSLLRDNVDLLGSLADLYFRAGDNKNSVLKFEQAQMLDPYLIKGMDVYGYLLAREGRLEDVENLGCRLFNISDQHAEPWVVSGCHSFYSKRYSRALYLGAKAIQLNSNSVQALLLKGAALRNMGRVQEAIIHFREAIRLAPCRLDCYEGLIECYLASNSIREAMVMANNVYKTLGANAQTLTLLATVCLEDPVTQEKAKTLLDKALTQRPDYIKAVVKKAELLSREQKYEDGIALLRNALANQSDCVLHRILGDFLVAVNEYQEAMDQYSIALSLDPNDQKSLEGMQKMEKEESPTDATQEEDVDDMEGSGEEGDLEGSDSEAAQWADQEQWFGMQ
T9 sequence (Q8NHZ8 whole entry): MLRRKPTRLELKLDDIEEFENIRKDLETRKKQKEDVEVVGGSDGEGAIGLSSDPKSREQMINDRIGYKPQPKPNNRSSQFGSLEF
T11 sequence (Q9UJX2 whole entry): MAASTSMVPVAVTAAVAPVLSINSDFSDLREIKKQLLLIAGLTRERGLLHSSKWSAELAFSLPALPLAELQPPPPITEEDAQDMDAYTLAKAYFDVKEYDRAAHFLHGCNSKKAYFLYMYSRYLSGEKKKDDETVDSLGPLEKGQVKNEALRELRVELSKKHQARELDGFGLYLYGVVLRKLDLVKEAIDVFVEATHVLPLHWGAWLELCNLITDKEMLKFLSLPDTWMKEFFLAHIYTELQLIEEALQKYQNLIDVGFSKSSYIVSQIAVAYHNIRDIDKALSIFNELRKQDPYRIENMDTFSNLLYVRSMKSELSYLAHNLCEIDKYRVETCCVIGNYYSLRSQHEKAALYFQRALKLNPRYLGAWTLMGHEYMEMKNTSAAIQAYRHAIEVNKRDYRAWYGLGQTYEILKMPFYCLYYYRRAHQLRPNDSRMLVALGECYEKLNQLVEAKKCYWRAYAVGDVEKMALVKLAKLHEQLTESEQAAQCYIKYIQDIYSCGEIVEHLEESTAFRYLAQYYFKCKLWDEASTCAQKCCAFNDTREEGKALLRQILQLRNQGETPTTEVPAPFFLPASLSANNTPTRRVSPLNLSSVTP
T5 sequence (Q9UJX2 whole entry): as above
T10 sequence (Q9UJX4 whole entry): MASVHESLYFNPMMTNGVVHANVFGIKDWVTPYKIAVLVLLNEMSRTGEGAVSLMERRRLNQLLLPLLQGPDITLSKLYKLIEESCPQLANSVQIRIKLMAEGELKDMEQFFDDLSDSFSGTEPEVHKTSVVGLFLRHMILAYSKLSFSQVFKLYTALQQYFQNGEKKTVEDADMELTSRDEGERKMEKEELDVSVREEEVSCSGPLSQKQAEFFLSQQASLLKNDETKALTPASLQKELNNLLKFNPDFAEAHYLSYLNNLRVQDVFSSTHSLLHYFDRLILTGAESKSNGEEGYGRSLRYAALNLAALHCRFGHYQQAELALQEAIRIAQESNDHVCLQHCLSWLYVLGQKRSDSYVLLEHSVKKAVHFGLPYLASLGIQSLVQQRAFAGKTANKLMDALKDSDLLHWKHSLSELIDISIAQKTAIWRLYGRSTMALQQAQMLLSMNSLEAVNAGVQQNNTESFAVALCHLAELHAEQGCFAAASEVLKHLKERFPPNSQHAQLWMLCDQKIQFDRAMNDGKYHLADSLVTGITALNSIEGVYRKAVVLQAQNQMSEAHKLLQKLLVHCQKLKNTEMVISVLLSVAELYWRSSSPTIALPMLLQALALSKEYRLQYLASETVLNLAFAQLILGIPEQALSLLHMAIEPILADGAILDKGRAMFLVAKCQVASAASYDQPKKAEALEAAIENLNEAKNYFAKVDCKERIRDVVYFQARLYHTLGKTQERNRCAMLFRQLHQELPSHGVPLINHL
T6 sequence (Q9UJX4 whole entry): as above
Chain of native CDC26 from late-eluting anion exchange fractions of HeLa extract (Q8NHZ8 whole entry): as the sequence (Q8NHZ8 whole entry) above

Molecule | binding of recombinant APC7 to matrix-coupled peptide (APC7) | effect of peptide on APC activation (ubiquitination activity) (APC activation by CDH1) | binding of recombinant APC6 to matrix-coupled peptide (APC6) | binding of recombinant APC8 to matrix-coupled peptide (APC8) | binding of recombinant APC5 to matrix-coupled peptide (APC5) | binding of holo-APC (all known subunits) to peptide matrix (holo-APC) | binding of recombinant APC3 to matrix-coupled peptide (APC3; [9]) | binding result [2] | binding result [3] | also measured
CLRREREKASTSKSSLIHQGIR (listed as Homo sapiens) [C-terminal peptide of CDC20, IR peptide; authentic human CDC20 C-terminus] | moderately | blocked APC activation efficiently | bound only in low amounts | did not bind | interacted with neither | – | – | – | – | effect of peptide on APC activation (ubiquitination activity) (APC activation by CDH1; [5]): inhibit; input APC3 bound to matrix-coupled peptide (APC3; recombinant APC3 in insect cell lysates, western blot, % of input): about 10%; effect of peptide on CDH1 binding to APC [1]: diminished binding of CDH1; effect of peptide on CDH1 binding to APC [1, 5]: inhibit
CFSKTRSTKESVSVLNLFTRIR (listed as Homo sapiens) [CDH1 C-terminal peptide, IR peptide; authentic human CDH1 C-terminus] | interacted strongly | – | bound only in low amounts | did not bind | interacted with neither | strongly enriched | even stronger binding | – | – | binding of native APC7 to peptide matrix (APC7; [6]): significantly retained; effect of peptide on APC activation (ubiquitination activity) (APC activation by CDH1; [7]): inhibit; effect of peptide on APC activation (ubiquitination activity) (APC activation by CDH1; [8]): blocked APC activation efficiently; binding of native APC6 to peptide matrix (APC6; late-eluting Q column fractions from HeLa extracts, listed as CDH1 peptide): did not bind; binding of native APC3 to peptide matrix (APC3; [6]): significantly retained; binding of CDC26 to peptide matrix (CDC26): no binding at all; also recorded: did not bind; inhibitory effect compared with the CDC20 C-terminal peptide ([1]; comparison of the two C-terminal peptides): stronger effect; effect of peptide on CDH1 binding to APC [1, 7]: inhibit; effect of peptide on CDH1 binding to APC [1, 8]: diminished binding of CDH1
CAVWSLSSCKPGFGVD (Control peptide) [reference compound] | – | – | low amounts | – | – | not | did not bind | – | – | –
CESDLHSLLQLDAPIPNAPPARW (listed as Homo sapiens) [N-terminal CDC20 peptide, synthetic peptide of the CDC20 N-terminus used as control, reference compound] | – | no effect | – | – | – | – | – | – | – | –
B1 | – | – | – | – | – | – | – | no binding | no binding | –
B2 | – | – | – | – | – | – | – | no binding | no binding | binding result [4]: no binding
